Assay results reported in US20100150906A1 (AC IMMUNE S A, published 2010).
Values joined by “and” are separate entries in the source; they are usually repeats but may differ in a detail not shown here. Equal entries are not always repeated. No end group written: not given here.

T1: peptide 10 (also: biotinylated, site not given here)
T1 construct: also called 10 on the axis Peptide number; first peptide library
T1 peptide: YEVHHQKLV

T2: peptide 20 (also: biotinylated, site not given here)
T2 construct: also called 20 on the axis Peptide number; first peptide library
T2 peptide: FAEDVGSNK

T3: peptide 8 (also: biotinylated, site not given here)
T3 construct: also called 8 on the axis Peptide number; first peptide library
T3 peptide: SGYEVHHQK


Assays:
peptide 10 = molecular target: T1, peptide 10; test: ELISA, biotinylated peptide on streptavidin plate, O.D. 405 nm [upper chart, Figure 1]
Text: (§1) One library comprised a total of 33 biotinylated peptides covering the complete amino acid (aa) sequence of Aβ1-42 (produced by Mimotopes and purchased from ANAWA Trading SA), the second library contains biotinylated peptides using peptide 12 (aa12-20 of Aβ) from the first peptide library and substituting each aa in the sequence by an alanine (see table 8 below), and the third library contains biotinylated peptides 13, 14, or 15 (aa 13-21, 14-22 or 15-23 of Aβ) and substituting in each case the last amino acids to an alanine or to a glycine for aa 21 which is already an alanine (see table 9 below). A biotinylated complete Aβ1-42 peptide was used as positive control (Bachem). Epitope mapping was done according to the manufacturer's (Mimotopes) instructions. Briefly, Streptavidin coated plates (NUNC) were blocked with 0.1% BSA in PBS overnight at 4° C. After washing with PBS-0.05% Tween 20, plates were coated for 1 hour at RT with the different peptides from the library, diluted in 0.1% BSA, 0.1% Sodium Azide in PBS to a final concentration of 10 μM. […] Plates were washed again and incubated with alkaline phosphatase conjugated goat anti human IgG for 1 h at RT.

peptide 20 = molecular target: T2, peptide 20; test: as above
Text: as §1

peptide 8 = molecular target: T3, peptide 8; test: as above
Text: as §1

amyloid beta 1-42 fibers [1] = molecular target: T4, amyloid beta 1-42 fibers (UniProt P05067 672-713); test: SPR (BIACORE), Aβ1-42 fibers immobilized on CM5 chip, antibody 0.05-1.0 µM
T4 construct: domain: amyloid beta 1-42; Many copies per fiber; also called Aβ1-42 fibers; fibrillar Aβ1-42
Experimental: (§2) BIACORE® technology utilizes changes in the refractive index at the surface layer upon binding of the antibody to the antigen immobilized on the layer. Binding is detected by surface plasmon resonance (SPR) of laser light refracting from the surface. Analysis of the signal kinetics on rate and off rate allows the discrimination between non-specific and specific interaction. The concentration of antibody used was in the range of 0.05 μM to 1.0 μM.

[2] = molecular target: T5, amyloid beta 1-42 monomers (UniProt P05067 672-713); test: SPR (BIACORE), Aβ1-42 monomers immobilized on CM5 chip, antibody 0.05-1.0 µM
T5 construct: domain: amyloid beta 1-42; also called Aβ1-42 monomers; amyloid monomers
Experimental: as §2

amyloid beta 1-42 fibers [3] = molecular target: T4, amyloid beta 1-42 fibers; test: ELISA on coated amyloid (55 µg/ml); mC2 at 0.625 ug/ml
Experimental: (§3) In order to evaluate the specificity of mC2 to different stages of polymerized amyloid protein, monomeric, polymeric soluble and fibrillic amyloid, an ELISA coated with these different stages of polymeric beta-amyloid was performed (FIG. 9). Monomers were prepared according to a modified method published by (Klein, 2002), soluble polymeric amyloid beta according to (Barghorn et al., 2005), whereas fibers were performed by incubation of amyloid (Bachem, Switzerland) with a final concentration of 1 μg/μl in Tris/HCl pH 7.4 at 37° C. for 5 days followed by a centrifugation step (10,000 rpm for 5 minutes). Then amyloid polymers were coated on an ELISA plates with a final concentration of 55 μg/ml and binding affinity ELISA by using an anti-mouse IgG monoclonal antibody (Jackson) labelled with alkaline phosphate was performed.

[4] = molecular target: T6, soluble polymeric amyloid beta (oligomers) (UniProt P05067 672-713); test: as above
T6 construct: domain: amyloid beta 1-42; also called amyloid oligomers; Abeta oligomer
Experimental: as §3

[5] = molecular target: T5, amyloid beta 1-42 monomers; test: as above
Experimental: as §3

[6] = molecular target: T7, biotinylated complete Aβ1-42 peptide (Bachem) (UniProt P05067 672-713, biotinylated (position not given)); test: SPR (Biacore X), biotinylated monomeric Aβ1-42 on SA chip, 1:1 fit
T7 construct: domain: amyloid beta 1-42; also called Amyloid beta 1-42; whole Aβ1-42 protein
Experimental: The interactions between AC immune's lead antibody mACI-01-Ab7 C2 (mC2) with amyloid peptide Aβ₁₋₄₂ was studies using surface plasmon resonance. The binding of the mouse antibody mACI-01-Ab7 C2 to either monomers or fibers of Aβ₁₋₄₂ were determined.
All SPR experiments were carried out on a Biacore X instrument (Biacore AB). Reagents for immobilization (EDC, NHS and ethanolamine), sensor chips CM5 and SA as well as running and sample buffer HBS-EP were purchased from Biacore AB. Sodium acetate (10 mM, pH 5.0) was used as coupling buffer to increase coupling yield. Fibrillar Aβ₁₋₄₂ (BAchem) was prepared by adding PBS buffer to Aβ₁₋₄₂ to a final concentration of 3 mg/ml and leaving the vials at 37° C. for 7 days. Fibrillar Aβ₁₋₄₂ was coupled to a CM5 sensor chip containing a surface-bound carboxymethyl dextran matrix. Biotinylated monomeric Aβ₁₋₄₂ (Bachem) was coupled to a Sensor chip SA consisting of carboxymethyl dextran matrix with covalently attached Streptavidin. Typically four or five concentrations of mAb were assayed by serial dilutions using running buffer. Injections were performed starting from the lowest concentration and were passed over both fc 1 and 2 at a flow rate of 30 μL'min for 3 min. Flow cell 2 was underivatised and responses were subtracted from fc 1 to correct for instrument noise and bulk refractive changes. After injection was finished, the surfaces were washed immediately with running buffer for 5 min. To remove remaining bound antibody from the Aβ₁₋₄₂ fibrils, surface regeneration was performed by injecting pulses of 10 mM NaOH. Kinetic analysis was performed using algorithms for numerical integration and global analysis using BIAevaluation 3.0. The curves obtained for injections of analyte at different concentrations were overlaid and the baselines adjusted to zero. For curve fitting, all data were fit simultaneously to a 1:1 homogeneous complex.

T4 sequence (P05067 672-713 limits assumed): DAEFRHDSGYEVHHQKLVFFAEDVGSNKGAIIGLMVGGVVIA
T7 sequence (P05067 672-713 limits assumed): as above
T5 sequence (P05067 672-713 limits assumed): as above
T6 sequence (P05067 672-713 limits assumed): as above

Row | Kd (amyloid beta 1-42 fibers [1]) [nM] | koff (amyloid beta 1-42 fibers [1]) [s⁻¹] | kon (amyloid beta 1-42 fibers [1]) [M⁻¹ s⁻¹] | Kd [2] [nM] | koff [2] [s⁻¹] | O.D (amyloid beta 1-42 fibers [3]) [O.D] | O.D [4] [O.D] | O.D [5] [O.D] | Kd [6] | koff [6] | kon [6] | Binder | binding result (peptide 10) | binding result (peptide 20) | binding result (peptide 8)
1 | – | – | – | – | – | – | – | – | – | – | – | humanized anti-human amyloid beta monoclonal antibody hC2 (antibody, human IgG4 S228P, kappa, V domains shown, also called humanized antibody C2; humanized C2) VH: EVQLVESGGGLVQPGGSLRLSCAASGFTFSSYGMSWVRQAPGKGLELVASINSNGGSTYYPDSVKGRFTISRDNAKNSLYLQMNSLRAEDTAVYYCASGDYWGQGTTVTVSS VL: DIVMTQSPLSLPVTPGEPASISCRSSQSLVYSNGDTYLHWYLQKPGQSPQLLIYKVSNRFSGVPDRFSGSGSGTDFTLKISRVEAEDVGVYYCSQSTHVPWTFGQGTKVEIKR | no binding (tested: 200 ng/ml (single concentration)) | no binding (tested: 200 ng/ml (single concentration)) | no binding (tested: 200 ng/ml (single concentration))
2 | 41 | 0.00099 | 24000 | 150 | 0.0027 | 1.62 | 2.81 | 1.16 | 150 nM and 350 nM | 0.0027 s⁻¹ and 0.0053 s⁻¹ | 18000 M⁻¹ s⁻¹ and 15000 M⁻¹ s⁻¹ | mouse monoclonal antibody ACI-01-Ab7C2 (antibody, V domains shown, also called mC2; mACI-01-Ab7 C2) VH: EVQLVESGGGLVQPGGSLKLSCAASGFTFSSYGMSWVRQTPDKRLELVASINSNGGSTYYPDSVKGRFTISRDNAKNTLYLQMSSLKSEDTAMYYCASGDYWGQGSTLTVSS VL: DVVMTQTPLSLPVSLGDQASISCRSSQSLVYSNGDTYLHWYLQKPGQSPKLLIYKVSNRFSGVPDRFSGSGSGTDFTLKISRVEAEDLGVYFCSQSTHVPWTFGGGTKLEIK | – | – | –
